Reference: publication PMC12431651

Key:
Assay in all cases: ITC; MED25 ACID (200 or 250 µM, syringe) titrated into NS1 (20 µM, cell); 20 mM Tris pH 8.0, 200 mM NaCl, 1 mM TCEP, 25°C; one set of sites model
[1] = target: NS1 F56A (human respiratory syncytial virus subgroup A, Long strain)
[2] = target: RSV NS1, full-length wild type (aa 1–139) (human respiratory syncytial virus subgroup A, Long strain)
[3] = target: NS1 L133A (human respiratory syncytial virus subgroup A, Long strain)
[4] = target: NS1 K112A (human respiratory syncytial virus subgroup A, Long strain)
[5] = target: NS1 M122A (human respiratory syncytial virus subgroup A, Long strain)
[6] = target: NS1 E110A (human respiratory syncytial virus subgroup A, Long strain)
[7] = target: NS1 I54A (human respiratory syncytial virus subgroup A, Long strain)
[8] = target: NS1 Y125A (human respiratory syncytial virus subgroup A, Long strain)

B1: MED25 ACID (aa 389–543) (domain or fragment)
chain: LGGQQSVSNKLLAWSGVLEWQEKPKPASVDANTKLTRSLPCQVYVNHGENLKTEQWPQKLIMQLIPQQLLTTLGPLFRNSRMVQFHFTNKDLESLKGLYRIMGNGFAGCVHFPHTAPCEVRVLMLLYSSKKKIFMGLIPYDQSGFVNGIRQVITN
Kd [1]: 198 nM | dH [1]: -8.3 kcal/mol | stoichiometry N [1]: 0.8 | Kd [2]: 44 nM | dH [2]: -10.1 kcal/mol | stoichiometry N [2]: 0.73 | Kd [3]: 2230 nM | dH [3]: -7.6 kcal/mol | stoichiometry N [3]: 0.44 | Kd [4]: 79 nM | dH [4]: -10.7 kcal/mol | stoichiometry N [4]: 0.66 | Kd [5]: 606 nM | dH [5]: -10.4 kcal/mol | stoichiometry N [5]: 0.71 | Kd [6]: 1540 nM | dH [6]: -7.7 kcal/mol | stoichiometry N [6]: 0.86 | Kd [7]: 45 nM | dH [7]: -10.7 kcal/mol | stoichiometry N [7]: 0.79 | Kd [8]: 80 nM | dH [8]: -11.9 kcal/mol | stoichiometry N [8]: 0.53
